Laboratory results as given in article PMC5349899.

Assays:
[1] = biological target: biotinylated avi-tagged TGF-β3 (human); assay: SPR; biotinylated avi-tagged TGF-β2 or TGF-β3 captured on streptavidin-coated CM5 chip at 50-80 RU; analytes injected as two-fold dilution series in HBS-EP at 100 µL/min (150 s); BIAcore 3000; global fit to a simple 1:1 model
[2] = biological target: biotinylated avi-tagged TGF-β2 (human); assay: as above
[3] = biological target: TGF-β2 (in the calorimeter cell); assay: ITC; ER or RER (50-110 µM) in the syringe, TGF-β2 (5-8 µM) in the cell; 10 mM sodium phosphate pH 7.4, 30 mM CHAPS; 37°C; Microcal PEAQ-ITC

Substance	Kd [1] [nM]	koff [1] [s⁻¹]	kon [1] [M⁻¹ s⁻¹]	Kd [2] [nM]	koff [2] [s⁻¹]	kon [2] [M⁻¹ s⁻¹]	Kd [3] [nM]	stoichiometry N [3] [sites]	IC50 of inhibition of PAI-1 luciferase reporter activity in Mv1Lu mink lung epithelial cells induced with 20 pM TGF-β1 (TGF-β1) [pM]	reduction of Smad2 phosphorylation (Western blot) in MCF-10A cells stimulated with 2 pM TGF-β1 in the presence of 0, 0.01, 0.1, 1 and 10 nM ER (TGF-β1) [%]
ER receptor trap (betaglycan endoglin domain-TβRII; rat BG-human TβRII receptor fusion) (designed binder)	0.0505	1.97e-05	391000	1.44	0.000438	307000	215	1.05	–	–
RER receptor trap (TβRII-betaglycan endoglin domain-TβRII) (designed binder)	0.0244	9.44e-06	387000	–	0.000253	307000	128	1.1	–	–
betaglycan endoglin domain (BGE) (domain or fragment)	94.6	0.0124	131000	30.6	0.00466	152000	–	–	–	–
bivalent TGF-β receptor trap ER (BGE-RII) (from UniProt P37173 23-166)	–	–	–	–	–	–	–	–	14	30
